Assay results reported in patent EP4660205A1 (Beijing Wisdomab Biotechnology Co., Ltd, dated 2025).
Where two headings read alike, the source gives them in different places.

Columns and labels:
[1] = target: T1, hIL-36R-His (extracellular domain of human IL-36R with C-terminal His tag) (human (homo sapiens), UniProt Q9HB29 20-335); test: SPR (Biacore T200), antibody captured by anti-human Fc, hIL-36R-His as analyte, 1:1 model
T1 construct: also called human hIL-36R-His
T1 sequence: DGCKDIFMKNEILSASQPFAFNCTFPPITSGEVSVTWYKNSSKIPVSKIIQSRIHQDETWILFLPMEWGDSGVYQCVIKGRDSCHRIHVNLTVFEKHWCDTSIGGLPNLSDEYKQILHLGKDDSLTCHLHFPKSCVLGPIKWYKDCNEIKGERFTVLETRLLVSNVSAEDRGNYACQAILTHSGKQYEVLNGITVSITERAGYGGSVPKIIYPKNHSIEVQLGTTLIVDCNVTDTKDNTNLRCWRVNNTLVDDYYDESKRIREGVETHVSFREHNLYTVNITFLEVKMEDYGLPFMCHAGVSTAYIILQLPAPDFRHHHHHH

[2] = target: T2, human IL-36R on the cell surface (HEK-Blue IL-36 cells, HaCAT cells, human CD14+ monocytes) (human, UniProt Q9HB29 20-575); test: cell-based or functional assay
T2 sequence (looked up): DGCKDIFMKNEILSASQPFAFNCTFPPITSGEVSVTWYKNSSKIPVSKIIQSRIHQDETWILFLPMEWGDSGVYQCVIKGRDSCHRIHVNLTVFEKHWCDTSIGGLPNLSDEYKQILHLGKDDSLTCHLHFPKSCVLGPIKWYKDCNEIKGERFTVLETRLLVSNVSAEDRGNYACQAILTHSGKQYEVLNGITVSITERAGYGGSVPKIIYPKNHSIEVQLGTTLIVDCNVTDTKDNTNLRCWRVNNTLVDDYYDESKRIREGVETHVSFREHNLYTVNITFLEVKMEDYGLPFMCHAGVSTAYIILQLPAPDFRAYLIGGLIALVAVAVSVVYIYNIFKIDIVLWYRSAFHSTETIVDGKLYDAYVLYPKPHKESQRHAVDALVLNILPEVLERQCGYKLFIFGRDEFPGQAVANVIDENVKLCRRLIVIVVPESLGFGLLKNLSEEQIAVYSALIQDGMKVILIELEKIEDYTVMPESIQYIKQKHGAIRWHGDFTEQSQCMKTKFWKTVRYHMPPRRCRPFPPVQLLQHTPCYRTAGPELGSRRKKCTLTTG

[3] = target: T3, hIL-1R3-His (extracellular domain of human IL-1R3 with C-terminal His tag) (human (homo sapiens), UniProt Q9NPH3 21-359); test: SPR (Biacore T200), antibody captured by anti-human Fc, hIL-1R3-His as analyte, 1:1 model
T3 sequence: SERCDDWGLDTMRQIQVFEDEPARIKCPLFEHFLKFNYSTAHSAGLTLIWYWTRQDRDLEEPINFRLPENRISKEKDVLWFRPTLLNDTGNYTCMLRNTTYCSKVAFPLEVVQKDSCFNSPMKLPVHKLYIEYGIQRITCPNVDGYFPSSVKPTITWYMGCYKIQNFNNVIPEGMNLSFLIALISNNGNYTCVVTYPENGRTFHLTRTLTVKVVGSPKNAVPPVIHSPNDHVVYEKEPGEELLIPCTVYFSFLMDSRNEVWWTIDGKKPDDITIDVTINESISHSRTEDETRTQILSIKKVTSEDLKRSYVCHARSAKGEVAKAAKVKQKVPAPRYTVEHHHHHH

[4] = target: T2, human IL-36R on the cell surface …; test: cell-based or functional assay; remark: listed apart in the source
[5] = target: T2, human IL-36R on the cell surface …; test: cell-based or functional assay; remark: listed apart in the source
[6] = target: T3, hIL-1R3-His (extracellular domain of …); test: SPR (Biacore T200), antibody captured by anti-human Fc, hIL-1R3-His as analyte, 1:1 model; remark: listed apart in the source
[7] = target: T3, hIL-1R3-His (extracellular domain of …); test: as above; remark: listed apart in the source
[8] = target: T1, hIL-36R-His (extracellular domain of …); test: SPR (Biacore T200), antibody captured by anti-human Fc, hIL-36R-His as analyte, 1:1 model; remark: listed apart in the source
[9] = target: T1, hIL-36R-His (extracellular domain of …); test: as above; remark: listed apart in the source
[10] = target: T2, human IL-36R on the cell surface …; test: cell-based or functional assay; remark: listed apart in the source

B1: Common light chain bispecific antibody (R72B7VH/R1B9VH-h1+L36E9VK) (bispecific antibody, human IgG1, kappa)
heavy 1: QVQLVQSGAEVKKPGASVKVSCKASGYSFTSSWIHWVKQAPGQGLEWMGEINPGNVRSNYNENFRNKVTMTVDTSISTAYMELSRLRSDDTAVYYCTVINYGEPYFASWGQGTLVTVSSASTKGPSVFPLAPSSKSTSEGTAALGCLVKDYFPEPVTVSWNSGALTSGVHTFPAVLQSSGLYSLSSVVTVPSSSLGTQTYICNVDHKPSNTKVDKTVEPKSCDKTHTCPPCPAPEFEGGPSVFLFPPKPKDTLMISRTPEVTCVVVDVSQEDPEVQFNWYVDGVEVHNAKTKPREEQYNSTYRVVSVLTVLHQDWLNGKEYKCKVSNKALPASIEKTISKAKGQPREPQVCTLPPSQEEMTKNQVSLSCAVKGFYPSDIAVEWESNGQPENNYKTTPPVLDSDGSFFLVSKLTVDKSRWQEGNVFSCSVMHEALHNHYTQKSLSLSPGK
heavy 2: EVQLVESGGGLVQPGGSLRLSCAASGFTFSSYAMSWVRQAPGKGLVWVAEISRGGSHTYYPDTVTGRFTISRDNAKNTLYLQMNSLRAEDTAVYYCARSYGNYPFDYWGQGTTVTVSSASTKGPSVFPLAPSSKSTSGGTAALGCLVKDYFPEPVTVSWNSGALTSGVHTFPAVLQSSGLYSLSSVVTVPSSSLGTQTYICNVNHKPSNTKVDKRVEPKSCDKTHTCPPCPAPEFEGGPSVFLFPPKPKDTLMISRTPEVTCVVVDVSHEDPEVKFNWYVDGVEVHNAKTKPREEQYNSTYRVVSVLTVLHQDWLNGKEYKCKVSNKALPASIEKTISKAKGQPREPQVYTLPPCREEMTKNQVSLWCLVKGFYPSDIAVEWESNGQPENNYKTTPPVLDSDGSFFLYSKLTVDKSRWQQGNVFSCSVMHEALHNHYTQKSLSLSPGK
light: EIVLTQSPGTLSLSPGERATLSCRASQSVIGSYLAWYQQKPGQAPRLLIYSASKLASGIPDRFSGSGSGTDFTLTISRLEPEDFAVYYCQQDTRYPITFGQGTKVEIKRTVAAPSVFIFPPSDEQLKSGTASVVCLLNNFYPREAKVQWKVDNALQSGNSQESVTEQDSKDSTYSLSSTLTLSKADYEKHKVYACEVTHQGLSSPVTKSFNRGEC
notes: also called IL-36R×IL-1R3 common light chain bispecific antibody; R72B7/R1B9VH-h1+L36E9VK
- Kd [1]: 1.29 nM
- koff [1]: 3.98e-05 s⁻¹
- kon [1]: 30700 M⁻¹ s⁻¹
- IC50 for inhibiting IL-36γ-induced hIL-8 secretion by human monocytes [2]: 0.00171 nM
- Kd [3]: 1.44 nM
- koff [3]: 5.53e-05 s⁻¹
- kon [3]: 38400 M⁻¹ s⁻¹
- IC50 for inhibiting IL-36α from inducing hIL-8 secretion by HaCAT cells [4]: 0.00797 nM
- IC50 for inhibiting IL-36β from inducing hIL-8 secretion by HaCAT cells [4]: 0.027 nM
- IC50 for inhibiting IL-36γ from inducing hIL-8 secretion by HaCAT cells [4]: 0.0453 nM
- fold increase of activity by IC50 against Spesolimab, IL-36α, HaCAT hIL-8 secretion [5]: ~12 fold
- fold increase of activity by IC50 against Spesolimab, IL-36β, HaCAT hIL-8 secretion [5]: ~4 fold
- fold increase of activity by IC50 against Spesolimab, IL-36γ, HaCAT hIL-8 secretion [5]: ~15 fold
- fold increase of activity by IC50 against Spesolimab, IL-36γ, hIL-8 secretion by human monocytes [5]: ~17 fold

B2: R1B9 (mouse anti-human IL-1R3 monoclonal antibody) (antibody, V domains shown)
VH: EVKLVESGGGLVKPGGSLKLSCAASGFTFSSYAMSWVRQSPEKRLEWVAEISRGGSHTYYPDTVTGRFTISRDNAKNTLYLEMTSLRSEDTALYYCARSYGNYPFDYWGQGTTLTVSS
VL: DIVMTQSPAIMSASPGEKVTMTCSASSSVSYMYWYQQKPGSSPRLLIYDTSNLASGVPVRFSGSGSGTSYSLTISRMEAEDAATYYCQQWSSYPLTFGAGTKLEIK
notes: Found as a mouse scFv on phage; it was captured by anti-human IgG (Fc) in SPR and detected with anti-human IgG-FITC, which points to a human Fc; also called mouse IL-1R3 monoclonal antibody R1B9; parent R1B9
- Kd [6]: 1.07 nM
- koff [6]: 0.00011 s⁻¹
- kon [6]: 103000 M⁻¹ s⁻¹
- Kd [7]: 1.24 nM
- koff [7]: 9.32e-05 s⁻¹
- kon [7]: 75000 M⁻¹ s⁻¹

B3: R49E11VH-h3+L26B11VK (antibody, V domains shown)
VH: QVQLVQSGAEVKKPGASVKVSCKASGYSFTSSWIHWVRQAPGQGLEWMGEINPGSGRSNYNENFQGRVTMTVDTSISTAYMELSRLRSDDTAVYYCTVVFYGEPYFPFWGQGTLVTVSS
VL: EIVLTQSPGTLSLSPGERATLSCRASQSVIYSYLAWYQQKPGQAPRLLIYSASKRASGIPDRFSGSGSGTDFTLTISRLEPEDFAVYYCQQHAGIPVTFGQGTKVEIK
notes: Found as a Fab on phage; also called anti-human IL-36R monoclonal antibody; IL-36R monoclonal antibody
- Kd [8]: 1.76 nM
- koff [8]: 6.83e-05 s⁻¹
- kon [8]: 38900 M⁻¹ s⁻¹
- Kd [9]: 2.9 nM
- koff [9]: 6.63e-05 s⁻¹
- kon [9]: 22800 M⁻¹ s⁻¹
- IC50 for inhibiting IL-36γ-induced hIL-8 secretion by human monocytes [2]: 0.0677 nM
- IC50 for inhibiting IL-36α from inducing hIL-8 secretion by HaCAT cells [10]: 0.0533 nM
- IC50 for inhibiting IL-36β from inducing hIL-8 secretion by HaCAT cells [10]: 0.276 nM
- IC50 for inhibiting IL-36γ from inducing hIL-8 secretion by HaCAT cells [10]: 1.9 nM
- IC50 for inhibiting IL-36α from inducing hIL-8 secretion by HaCAT cells [4]: 0.0559 nM
- IC50 for inhibiting IL-36β from inducing hIL-8 secretion by HaCAT cells [4]: 0.28 nM
- IC50 for inhibiting IL-36γ from inducing hIL-8 secretion by HaCAT cells [4]: 1.58 nM
